Earlier results as cited in publication PMC12406711.

Biological target: PCDH10 ECD (Homo sapiens) (UniProt Q9P2E7)

Q: Which Kd does the source give for PCDH10 ECD (from UniProt Q9P2E7) here?
A: 3.6 µM
